Values quoted from earlier work in publication PMC5578174.
pKd: −log10 of the molar value.

Experiments:
PDGFRα (Homo sapiens) = PDGFRα (Homo sapiens) (UniProt P16234)
Ang-2 (Homo sapiens) = Ang-2 (Homo sapiens) (UniProt O15123)
Sequence of Ang-2 (Homo sapiens) (O15123 19-496): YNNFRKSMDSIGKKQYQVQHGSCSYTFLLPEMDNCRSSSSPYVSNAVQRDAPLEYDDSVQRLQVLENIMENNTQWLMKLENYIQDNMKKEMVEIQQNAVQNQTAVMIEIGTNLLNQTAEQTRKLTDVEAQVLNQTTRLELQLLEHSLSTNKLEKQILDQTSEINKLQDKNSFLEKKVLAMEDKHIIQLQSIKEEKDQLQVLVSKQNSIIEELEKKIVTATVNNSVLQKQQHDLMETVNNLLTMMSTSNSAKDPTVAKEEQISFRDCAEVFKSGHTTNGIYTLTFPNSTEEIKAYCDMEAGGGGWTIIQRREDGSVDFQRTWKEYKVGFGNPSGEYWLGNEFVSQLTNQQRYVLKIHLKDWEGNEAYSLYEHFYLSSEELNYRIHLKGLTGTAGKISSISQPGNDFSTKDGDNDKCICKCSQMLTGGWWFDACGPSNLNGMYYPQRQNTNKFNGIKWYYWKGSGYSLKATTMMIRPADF

Sequence of PDGFRα (Homo sapiens) (P16234 24-528): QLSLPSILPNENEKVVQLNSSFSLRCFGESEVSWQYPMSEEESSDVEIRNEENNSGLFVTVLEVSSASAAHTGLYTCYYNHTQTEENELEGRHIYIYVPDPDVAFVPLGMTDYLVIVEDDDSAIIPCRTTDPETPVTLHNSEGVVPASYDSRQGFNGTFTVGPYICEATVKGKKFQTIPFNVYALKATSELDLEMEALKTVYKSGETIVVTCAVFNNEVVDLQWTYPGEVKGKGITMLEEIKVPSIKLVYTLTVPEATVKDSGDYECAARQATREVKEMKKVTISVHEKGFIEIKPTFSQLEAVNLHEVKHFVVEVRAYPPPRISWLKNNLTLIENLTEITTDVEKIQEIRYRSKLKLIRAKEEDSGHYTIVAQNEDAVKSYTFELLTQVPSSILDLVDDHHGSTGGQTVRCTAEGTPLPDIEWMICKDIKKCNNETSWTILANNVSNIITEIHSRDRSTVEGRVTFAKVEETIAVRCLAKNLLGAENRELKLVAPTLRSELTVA

pKd (PDGFRα (Homo sapiens))	pKd (Ang-2 (Homo sapiens))	Substance
10.40	–	Olaratumab
–	10.62	Nesvacumab
